Data on one substance can be found in US20040052796A1.

The test deals with p185HER-2 (HER-2/neu, erbB-2 receptor tyrosine kinase) (human) (UniProt P04626). Briefly: method not described; binding to cell surface p185HER-2 (statement in the summary).

With “p68HER-2 (herstatin), product of the alternative HER-2 transcript with retained intron 8 (ligand)”, the dissociation constant Kd came out at 14 nM.
